Test results from patent publication US20240392015A1 (OREGON HEALTH AND SCIENCE UNIVERSITY, published 2024).

B1: leronlimab (human IgG4 Fc) (antibody, V domains shown)
VH: EVQLVESGGGLVKPGGSLRLSCAASGYTFSNYWIGWVRQAPGKGLEWIGDIYPGGNYIRNNEKFKDKTTLSADTSKNTAYLQMNSLKTEDTAVYYCGSSFGSNYVFAWFTYWGQGTLVTVSS
VL: DIVMTQSPLSLPVTPGEPASISCRSSQRLLSSYGHTYLHWYLQKPGQSPQLLIYEVSNRFSGVPDRFSGSGSGTDFTLKISRVEAEDVGVYYCSQSTHVPLTFGQGTKVEIK
notes: also called PRO140; PRO 140
B2: macaque IgG4 LS leronlimab (antibody, V domains shown)
VH: B1 VH
VL: DIVMTQSPLSLPVTPGEPASISCRSSQRLLSSYGHTYLHWYLQKPGQSPQLLIYEVSNRFSGVPDRFSGSGSGTDFTLKISRVEAEDVGVYYCSQSTHVPLTFGQGTKVEIKR
notes: also called MacLS; macaque IgG4 LS variant

Key:
[1] = target: T1, CCR5 on CD4+ T cells of rhesus macaques (rhesus macaque, UniProt P61813 1-352); experiment: CCR5 receptor occupancy by flow cytometry on blood CD4+ T cells after a single 10 mg/kg s.c. dose in rhesus macaques
T1 construct: also called surface CCR5; CD195

[2] = target: T1, CCR5 on CD4+ T cells of rhesus macaques; experiment: CCR5 receptor occupancy by flow cytometry on blood, rectal and vaginal CD4+ T cells after a single 10 mg/kg s.c. dose in rhesus macaques

Binder	binding result [1]	binding result [2]
B1	binds	
B2		binds
